Data on 5 molecules can be found in patent publication US20050069542A1 (Human Genome Sciences, published 2005).

The chains are these.
T1: flag-tagged soluble TL3 (amino acids 105-251 of SEQ ID NO:234) (Homo sapiens (Human), UniProt O75888 105-250)
T1 construct: Heterologous flag-tagged control protein, immobilized in the ELISA; also called flagged tagged TL-3; not shown: Flag tag
T1 sequence: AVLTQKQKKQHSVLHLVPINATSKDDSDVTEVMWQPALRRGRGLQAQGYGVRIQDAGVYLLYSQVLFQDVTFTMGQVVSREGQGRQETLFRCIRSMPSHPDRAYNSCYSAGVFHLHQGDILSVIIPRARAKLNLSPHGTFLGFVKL

B1: GMCC131 (scFv)
scFv: QVQLQESGPGLVKPSETLSLTCSVSGGSIRSHYWSWMRQPPGKGLEWIGYVYYTGSTNYNPSLKSRVTMSVDTSKNQFSLNLSSVTAADTAIYYCARFPYSSGSNPLDYWGRGTLVTVSSGGGGSGGGGSGGGGSAQSVLTQPPSVSAAPGQRVTISCTGSSSNIGARYDVHWYQHLPGTAPKLLIYGDSNRPSGVPDRFSGSKSGTSASLAITGLQPEDEADYYCQSYDSSLSGVVFGGGTKVTVLG
B2: GMCC127 (scFv)
scFv: QVQLVQSGGGVVRPGGSLRLSCAASGFTFDDYGMSWVRQAPGKGLEWVSGINWNGGSTGYADSVKGRFTISRDNAKNSLYLQMNSLRAEDTAVYYCARRRYALDYWGRGTLVTVSSGGGGSGGGGSGGGGSALSSELTQDPAVSVALGQAVRITCQGDSLRTNYASWYQQRPGQAPVLVIRGNNNRPSGIPDRFSGSNSGDTVSLTITGAQAEDEADYYCNSRDTSGYHYVFGTGTKLTVLG
B3: GMCC142 (scFv)
scFv: EVQLVQSGAEVKKPGASVTISCKASGYTFTAYYIYWVRQAPGQGLEWMGMSNPNGGYTVYPPNFLGRVTTTPDTSTNTIYMELRSLRSEDTAVYYCARGRGRAPSNAFDFWGRGTLVTVSSGGGGSGGGGSGGGGSALSSELTQDPAVSVALGQTVRITCQGDSLKFYYASWYQQKPGQAPVLVLHGKNNRPSGIPDRFSGSTSRDTASLTITGTQAEDEADYYCNSRDNSDNIVFGTGTKLTVLG
B4: GMCC129 (scFv)
scFv: EVQLVETGGGLAQPGGSLRLSCEASGFTFNNYAMSWVRQAPGKGLEWVSGISISGYSTFYTDSVQGRFTISRDNSKNTLYLQMNSLGVDDTAVYYCAKRRGEGGDFDYWGRGTMVTVSSGGGGSGGGGSGGGGSALSSELTQDPAVSVALGQTVRITCQGDSLRGYYASWYQQKAGQAPVLVIYGKNNRPSGIPDRFSGSSSGNTASLTITGAQAEDEADYYCYSRDRSGNHLGMFGGGTKVTVLG
B5: GMCC138 (scFv)
scFv: EVQLVETGPGLVKPSQTLSLTCTVSGGSISSGGYYWSWIRQVPGKGLEWIGYNFYNGSTYFNPSLKSRATISIDTTKNQFSLKLSSVTAADTAVYYCARGNGYRYGRWFDPWGRGTLVTVSSGGGGSGGGGSGGGGSALSYELTQPPSVSVSPGQTARITCSGDALPKQYAYWYQQKPGQAPVLVISKDSERPSGIPERFSGSSSGTTVTLTISGVQAEDEADYYCQSADSSGTYWVFGGGTKVTVLG

The experiment deals with T1, flag-tagged soluble TL3 (amino acids …). The experiment can be described thus: phage ELISA on immobilized flag-tagged soluble TL3. The method, boiled down: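 Phage displaying scFvs selected against flag-tagged GMAD were screened by ELISA against immobilized flag-tagged soluble TL3 (residues 105-251) as a heterologous flag-tagged counter-target, to check that binding is GMAD-specific.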
On the technique in general: An ELISA detects its analyte on a solid surface through an enzyme-linked reagent.
On to B1, for which the binding result was “no binding”.
As for B2, the entry is “no binding”; as for B3, “no binding”; as for B4, “no binding”.
In the case of B5, the binding result is given as “no binding”.
